Data on one protein can be found in patent US20250041410A1 (Y MABS THERAPEUTICS, published 2025).

The series concerns the molecule itself. Put plainly: mass photometry (Refeyn) after dilution in PBS and 60 min at 37 C; self-association of the chain into dimer and tetramer. The protocol: For this example, a Refeyn Mass photometer (Refeyn Ltd, Oxford UK) was used according to the manufacturer's instructions, with the following settings:
The GD2-SADA construct was diluted in PBS, and incubated for 60 minutes at 37° C. before measuring the size distribution. Following dilutions were made: 150 nM, 100 nM, 50 nM, 10 nM, 5 nM, 1 nM and 100 PM and subjected to Mass photometry using the Refeyn Mass photometer.

B1: GD2-SADA complex (other)
chain: EIVMTQTPATLSVSAGERVTITCKASQSVSNDVTWYQQKPGQAPRLLIYSASNRYSGVPARFSGSGYGTEFTFTISSVQSEDFAVYFCQQDYSSFGCGTKLEIKRGGGGSGGGGSGGGGSGGGGSGGGGSGGGGSQVQLVESGPGVVQPGRSLRISCAVSGFSVTNYGVHWVRQPPGKCLEWLGVIWAGGITNYNSAFMSRLTISKDNSKNTVYLQMNSLRAEDTAMYYCASRGGHYGYALDYWGQGTLVTVSSGGGGSGGGGSGGGGSGGGGSHVQLVESGGGLVQPGGSLRLSCAASGFSLTDYGVHWVRQAPGKGLEWLGVIWSGGGTAYNTALISRFTISRDNSKNTLYLQMNSLRAEDTAVYYCARRGSYPYNYFDAWGCGTLVTVSSGGGGSGGGGSGGGGSGGGGSGGGGSGGGGSQAVVTQEPSLTVSPGGTVTLTCGSSTGAVTASNYANWVQQKPGQCPRGLIGGHNNRPPGVPARFSGSLLGGKAALTLLGAQPEDEAEYYCALWYSDHWVIGGGTKLTVLGTPLGDTTHTSGKPLDGEYFTLQIRGRERFEMFRELNEALELKDAQAGKEPGGSGGA
notes: A single polypeptide: anti-GD2 scFv, humanized C825 (anti-DOTA) scFv and the p53 tetramerization (SADA) domain; It is written here as one chain that associates with itself; In the mass photometry assay it was a concentration-dependent mixture of monomer, dimer, tetramer and higher multimers; also called GD2-SADA construct; GD2-SADA conjugate
With B1, the binding result is listed as “binds”.
